Legend:
[1] = target: WT-Dsg2, complete extracellular region (EC1-5) of human desmoglein-2 (human) (UniProt Q14126); assay: single-molecule AFM binding assay
[2] = target: Full-length I175D Pcad fused to a C-terminal mCherry tag (human); assay: co-IP
[3] = target: Full-length W2A Pcad fused to a C-terminal mCherry tag (human); assay: co-IP
[4] = target: W2A-Dsg2, complete extracellular region (EC1-5) of human desmoglein-2 (human) (UniProt Q14126); assay: single-molecule AFM binding assay

| Substance | binding probability [1] [%] | Dsg2 binding capacity relative to WT-Pcad (Dsg2/Pcad pull-down ratio) [2] [%] | Dsg2 binding capacity relative to WT-Pcad (Dsg2/Pcad pull-down ratio) [3] [%] | binding probability [4] [%] |
| --- | --- | --- | --- | --- |
| A5P-Pcad, complete ectodomain of human P-cadherin (from UniProt P22223 25-654) (domain or fragment) | 4.5 | – | – | – |
| Desmoglein-2 (Dsg2), endogenous in A431 cells (from UniProt Q14126 50-1118) (natural protein) | – | 80 | 25 | – |
| I175D-Pcad, complete extracellular region (EC1-5) of human P-cadherin (from UniProt P22223 25-654) (domain or fragment) | 7.8 | – | – | – |
| W2A-Pcad, complete extracellular region (EC1-5) of human P-cadherin (from UniProt P22223 25-654) (domain or fragment) | 4 | – | – | – |
| WT-Pcad, complete extracellular region (EC1-5) of human P-cadherin (from UniProt P22223 25-654) (domain or fragment) | 8 | – | – | 4 |

From publication doi:10.1101/2025.09.15.676363
